For 5 molecules, binding result and binding signal results are on record in paper PMC2275084.

Series [1] concerns the target T1, C598 (Tetrahymena thermophila, UniProt O77448 520-1117).
T1 sequence: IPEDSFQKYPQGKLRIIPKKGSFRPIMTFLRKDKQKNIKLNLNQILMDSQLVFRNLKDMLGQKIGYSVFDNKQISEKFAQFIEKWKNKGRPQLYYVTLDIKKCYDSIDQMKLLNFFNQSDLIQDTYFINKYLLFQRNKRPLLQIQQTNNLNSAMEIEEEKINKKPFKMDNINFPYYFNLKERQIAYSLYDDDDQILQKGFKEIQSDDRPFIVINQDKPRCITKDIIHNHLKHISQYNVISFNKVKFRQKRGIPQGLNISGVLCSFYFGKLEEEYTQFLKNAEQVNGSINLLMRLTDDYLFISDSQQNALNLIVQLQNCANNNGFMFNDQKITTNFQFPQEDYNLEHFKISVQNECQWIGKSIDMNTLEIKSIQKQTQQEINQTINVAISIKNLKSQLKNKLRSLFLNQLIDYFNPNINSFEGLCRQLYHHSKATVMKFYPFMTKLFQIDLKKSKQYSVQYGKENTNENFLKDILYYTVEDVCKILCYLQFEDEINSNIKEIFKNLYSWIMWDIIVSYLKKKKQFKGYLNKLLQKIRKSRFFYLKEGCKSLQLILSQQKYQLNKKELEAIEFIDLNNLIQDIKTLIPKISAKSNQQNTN
The series is described as follows: UV crosslinking.

The target in series [2] is T2, N519 (Tetrahymena thermophila, UniProt O77448 1-519).
T2 sequence: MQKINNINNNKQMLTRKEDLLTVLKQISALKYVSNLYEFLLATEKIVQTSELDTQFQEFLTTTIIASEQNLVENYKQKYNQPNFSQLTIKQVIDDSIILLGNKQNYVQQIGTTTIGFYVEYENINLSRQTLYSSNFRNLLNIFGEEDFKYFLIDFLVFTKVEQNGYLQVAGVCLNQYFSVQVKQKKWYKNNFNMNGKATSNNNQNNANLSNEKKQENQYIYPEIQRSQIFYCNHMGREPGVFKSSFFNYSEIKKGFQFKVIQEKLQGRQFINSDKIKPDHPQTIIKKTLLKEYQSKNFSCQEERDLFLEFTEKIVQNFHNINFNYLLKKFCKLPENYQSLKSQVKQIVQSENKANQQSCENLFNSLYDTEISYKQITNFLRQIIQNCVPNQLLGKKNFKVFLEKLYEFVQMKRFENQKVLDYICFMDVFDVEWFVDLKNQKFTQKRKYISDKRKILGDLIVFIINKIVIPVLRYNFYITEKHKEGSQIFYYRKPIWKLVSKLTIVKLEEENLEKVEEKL
Kind of series: UV crosslinking.

Series [3] addresses T3, TEN domain (E. coli) (Tetrahymena thermophila, UniProt O77448 2-191).
T3 sequence: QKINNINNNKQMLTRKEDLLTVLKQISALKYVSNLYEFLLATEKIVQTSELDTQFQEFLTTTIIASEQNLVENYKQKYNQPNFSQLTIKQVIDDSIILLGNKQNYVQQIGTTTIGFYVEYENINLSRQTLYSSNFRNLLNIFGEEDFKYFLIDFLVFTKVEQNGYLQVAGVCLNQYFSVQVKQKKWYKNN
The series is described as follows: UV crosslinking.

Series [4] has as its target T4, TEN domain (in vitro translated) (Tetrahymena thermophila, UniProt O77448 2-191).
T4 sequence: T3 sequence
The series is described as follows: NeutrAvidin pull-down.

Series [5] has as its target T2, N519. Kind of series: NeutrAvidin pull-down.
In series [6] the target is T5, TERT deltaTEN (Tetrahymena thermophila, UniProt O77448 192-1117).
T5 sequence: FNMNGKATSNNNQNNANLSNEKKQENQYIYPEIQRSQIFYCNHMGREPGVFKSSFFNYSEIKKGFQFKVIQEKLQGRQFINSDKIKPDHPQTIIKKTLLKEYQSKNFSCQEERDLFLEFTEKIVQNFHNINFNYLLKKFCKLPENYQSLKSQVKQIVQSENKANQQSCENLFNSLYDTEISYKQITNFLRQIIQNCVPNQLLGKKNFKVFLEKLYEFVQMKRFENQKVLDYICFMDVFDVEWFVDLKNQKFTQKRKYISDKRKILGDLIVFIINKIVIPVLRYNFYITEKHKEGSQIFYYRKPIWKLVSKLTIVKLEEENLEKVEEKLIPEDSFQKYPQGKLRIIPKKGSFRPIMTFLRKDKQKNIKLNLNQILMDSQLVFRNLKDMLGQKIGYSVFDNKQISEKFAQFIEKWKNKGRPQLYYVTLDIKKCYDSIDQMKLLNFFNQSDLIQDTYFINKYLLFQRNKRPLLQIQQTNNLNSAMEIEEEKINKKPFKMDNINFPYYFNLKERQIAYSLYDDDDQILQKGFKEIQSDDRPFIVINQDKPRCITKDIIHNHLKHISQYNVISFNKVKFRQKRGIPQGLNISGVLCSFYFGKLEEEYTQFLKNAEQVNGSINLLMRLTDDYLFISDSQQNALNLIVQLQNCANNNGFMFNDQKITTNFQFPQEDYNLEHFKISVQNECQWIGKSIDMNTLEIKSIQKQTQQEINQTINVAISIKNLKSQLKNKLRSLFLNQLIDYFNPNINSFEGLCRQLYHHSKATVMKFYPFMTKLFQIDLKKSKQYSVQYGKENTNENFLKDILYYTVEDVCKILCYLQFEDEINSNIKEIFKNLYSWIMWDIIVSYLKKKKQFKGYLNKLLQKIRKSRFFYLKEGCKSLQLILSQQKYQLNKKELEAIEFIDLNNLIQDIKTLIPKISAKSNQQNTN
The series is described as follows: NeutrAvidin pull-down.

Series [7] deals with T6, TERT deltaC233 (Tetrahymena thermophila, UniProt O77448 1-884).
T6 sequence: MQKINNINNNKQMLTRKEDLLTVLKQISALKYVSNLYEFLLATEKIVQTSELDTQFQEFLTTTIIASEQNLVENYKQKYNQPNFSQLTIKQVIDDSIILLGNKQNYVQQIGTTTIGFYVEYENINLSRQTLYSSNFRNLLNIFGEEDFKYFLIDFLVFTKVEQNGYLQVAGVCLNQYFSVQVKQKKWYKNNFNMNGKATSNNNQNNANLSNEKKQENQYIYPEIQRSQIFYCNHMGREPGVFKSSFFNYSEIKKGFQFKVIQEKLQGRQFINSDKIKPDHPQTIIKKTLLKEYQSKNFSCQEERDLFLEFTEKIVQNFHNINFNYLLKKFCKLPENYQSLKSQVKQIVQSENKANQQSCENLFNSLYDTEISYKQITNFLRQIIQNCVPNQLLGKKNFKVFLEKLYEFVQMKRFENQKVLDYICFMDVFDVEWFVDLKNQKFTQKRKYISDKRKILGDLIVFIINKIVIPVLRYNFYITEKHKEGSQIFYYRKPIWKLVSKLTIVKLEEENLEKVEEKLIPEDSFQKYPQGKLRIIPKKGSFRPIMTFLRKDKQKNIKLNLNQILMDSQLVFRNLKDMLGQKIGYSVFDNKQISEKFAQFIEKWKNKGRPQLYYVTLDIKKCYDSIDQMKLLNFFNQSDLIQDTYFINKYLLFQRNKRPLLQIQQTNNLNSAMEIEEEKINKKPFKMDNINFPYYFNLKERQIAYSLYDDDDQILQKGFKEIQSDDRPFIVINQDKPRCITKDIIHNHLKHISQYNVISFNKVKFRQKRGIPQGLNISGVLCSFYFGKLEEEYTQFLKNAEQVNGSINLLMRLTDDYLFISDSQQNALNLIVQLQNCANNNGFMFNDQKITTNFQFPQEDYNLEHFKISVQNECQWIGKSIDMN
The series is described as follows: NeutrAvidin pull-down.

In the case of TTGGGGTTGGGGUTGGGGTT (ssDNA, 5-iodo-dU at position 13) [I(13)20GTT], the binding result in series [1], in series [2] and in series [3] was “binds” each time.
Turning to GGGGTTGGGGTTGGGGTT (ssDNA, 5' biotin) [Bio-18GTT], the binding result in series [4] was “no binding”. Moreover, the binding signal was ~6 fold lower affinity than full-length TERT in series [5], ~4 fold higher Kd than full-length TERT in series [6] and ~4 fold higher Kd than full-length TERT in series [7].
For the molecule TTGGGGUTGGGGTTGGGGTT (ssDNA, 5-iodo-dU at position 7) [I(7)20GTT], the binding result in series [1], in series [2] and in series [3] was “binds” each time.
UTGGGGTTGGGGTTGGGGTT (ssDNA, 5-iodo-dU at position 1) [I(1)20GTT]: the binding result in series [1] and in series [2] was “binds” in each case.
On to TTGGGGTTGGGGTTGGGGUT (ssDNA, 5-iodo-dU at position 19) [I(19)20GTT], for which the binding result in series [1], in series [2] and in series [3] was “binds” each time.
